From the supplement of paper PMC12764529
± gives the half width of the 95% confidence interval.

Experiments:
[1] = folding stability dG unfold from trypsin proteolysis; higher = more stable
Procedure, shortened: (§1)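 Sequencing followed digestion of designed mini-proteins with trypsin and chymotrypsin, each at 11 concentrations in threefold dilutions together with a no-protease condition. The mini-proteins were under 80 residues, had no cysteine, sat in a PA-tagged cDNA display construct, and were kept only if AlphaFold2 dimer inter-PAE was above 15. From the counts, Bayesian fitting gave K50, and unfolding free energy was derived against a sequence-predicted unfolded-state K50 and a shared folded-state K50, per protease or combined.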

[2] = folding stability dG unfold from chymotrypsin proteolysis; higher = more stable
Procedure, shortened: as §1

[3] = folding stability dG unfold (combined trypsin and chymotrypsin); higher = more stable
Procedure, shortened: as §1

Sequence	folding stability dG unfold [1] [kcal/mol]	folding stability dG unfold [2] [kcal/mol]	folding stability dG unfold [3] [kcal/mol]
SAGGSAKMVLVKIKVEGMSVEEVKKLLEEAGAKVVKIDEEKKVIIVEVSPEKAEELAKKLGFEVEVSAGGSA [r15_731_TrROS_Hall]	3.36 ± 0.14	3.42 ± 0.11	3.45 ± 0.086
SAGGSAKPEPIKIEIGPGGNRFKATFPNGDEADVDVVKDGDKTYLLITVTSPDGKPRPFKIPLEKLSAGGSA [r15_941_TrMRF]	1.76 ± 0.042	2.24 ± 0.023	2.1 ± 0.05
SAGGSAKRYFIMIDIRYPGDGKEIYPLVIPIPPGEPISIEDILDEIGFPPENADNVDIEIHTFRAKSAGGSA [r15_665_TrROS]	1.56 ± 0.078	1.57 ± 0.14	1.51 ± 0.22
SAGGSAKSIKAEELAKEIADLMQERNPNWRVEIEPQPGPGPMITVKIYHRDPNNGDQQPINTFTIRSAGGSA [r15_682_TrROS]	0.502 ± 0.099	0.188 ± 0.15	0.442 ± 0.15
SAGGSAKTIKIWIPVKGMTPEMLEEIARDILEELGMKVDIEPHPGDGYIEVTFKLPGKDIEIIIPWSAGGSA [r15_168_TrROS]	2.04 ± 0.062	3.04 ± 0.1	2.61 ± 0.16
SAGGSAKTKTITLKIKIVDPKTNKVYEFEIKIEVELTLDKNGKLTAKIKKIEIKAPKNSPLLKKLLSAGGSA [r15_258_TrROS_Hall]	2.57 ± 0.063	3.18 ± 0.041	2.68 ± 0.24
SAGGSAKVIAVPSLEEALKLAEEAAKEGKDIVVLFPDNRLLVVEVKPAPDDKPVLKLKVFEIPPELSAGGSA [r15_761_TrMRF]	0.47 ± 0.049	0.974 ± 0.072	0.767 ± 0.15
SAGGSAKWELSIWIPAPGMTPDKARELARDIAREFAQPGWKVKDIEVEPVNPDENVYRGTVTIEPPSAGGSA [r15_96_TrROS]	0.951 ± 0.04	1.82 ± 0.11	1.49 ± 0.13
SAGGSALAEKAKELALEKGYDPVKVTYDPKTGTLTMTAKPPGGKEVKMTFTIDEDTITITTTPLTKSAGGSA [r15_561_JUSTAS]	0.996 ± 0.033	2.95 ± 0.078	2.49 ± 0.16
SAGGSALDPDDLEKVTIEFMFYNPNGNLLYEMTLEIYPDDGVIKMEHKQRRPGEPQKVTMEFPFDPSAGGSA [r15_278_TrROS]	1.63 ± 0.29	1.67 ± 0.18	1.73 ± 0.28
SAGGSALPALAERFPDAEIEPVGDDGTSVTYRFRFPGGDYLLVTVPFLPGTTEAVVDIEWVPRDALSAGGSA [r15_547_TrMRF]	1.68 ± 0.051	2.628 ± 0.012	2.35 ± 0.051
SAGGSALPDIEVEELVRRLLELLEEDQPFRIVVFPPGGRWLTLDELLNVPAEEIPDLVVLVFVPDLSAGGSA [r15_144_TrMRF]	3.04 ± 0.091	3.49 ± 0.06	3.3 ± 0.088
SAGGSALTLNDKSLIPKPFPKKKAIVDVAVPLPPNLTLEEALEVAEAIANNLLKAGKIDEATVAIYSAGGSA [r15_450_TrMRF]	-0.0583 ± 0.11	0.151 ± 0.15	0.108 ± 0.091
SAGGSALVIKKVEPNKGYLVFESKEDDKPIVRVKLETLVAALEEDRIPPALRRLLAENPDQVFNPVSAGGSA [r15_359_TrMRF]	2.22 ± 0.12	1.75 ± 0.25	1.9 ± 0.21
SAGGSALYIPPGTEHTVLIKLKDDDRYYEAKVTRVYPTSIEVEVEDPLTGEKKRYTINATDIELGDSAGGSA [r15_381_TrMRF]	2.14 ± 0.12	2.24 ± 0.07	2.18 ± 0.18
SAGGSAMAIFTVTPPDGVPVTERYSFTTPEEVEAAFAAAKAALPPGTALSVTLVPEEEVAAGRPLLSAGGSA [r15_469_JUSTAS]	0.386 ± 0.027	1.59 ± 0.043	1.23 ± 0.034

Sequence	folding stability dG unfold [1] [kcal/mol]	folding stability dG unfold [2] [kcal/mol]	folding stability dG unfold [3] [kcal/mol]
SAGGSAMEIEVEKNEDGTVTIRFRDKETGEEIEIEIEVEPGMTEEEVREKAEELAEELKKKGIEIESAGGSA [r15_1022_TrROS_Hall]	2.82 ± 0.19	2.73 ± 0.19	2.89 ± 0.23
SAGGSAMETIELKLEDGSTLTIERDPENPNTLTITFEDGRKITVTADSAEEALKKALELAKEGKLPSAGGSA [r15_38_TrROS_Hall]	4.36 ± 0.33	4.58 ± 0.16	4.6 ± 0.17
SAGGSAMIEEKLIEIPPIPVPYPDGSVQKVPVLVEETVELKPFIDPNTDKTSTAKTVTKRKVIFPSSAGGSA [r15_884_JUSTAS]	-0.255 ± 0.21	0.76 ± 0.084	0.379 ± 0.15
SAGGSAMIELEIKLPKEEAEKIAEELAKKLAEELGLEVKVVDVEIEYDPETDEVTIRVKIEVEPEPSAGGSA [r15_70_TrROS_Hall]	2.68 ± 0.15	1.98 ± 0.1	2.48 ± 0.24
SAGGSAMIITFDKKTGKLTIYNKETGKKIEAEITKIEKIPEDKKYVKIKIKNKKTKKEFEFIFKIKSAGGSA [r15_209_TrROS_Hall]	2.57 ± 0.16	4.39 ± 0.1	3.81 ± 0.38
SAGGSAMIVTEDPNGVLTTTENGKVTTTTVTPVPRPDPFSDKTFTEYVVTTTTTPVAPSPITPNTLSAGGSA [r15_515_JUSTAS]	1.26 ± 0.032	-0.0422 ± 0.081	0.823 ± 0.046
SAGGSAMKEIEINGYKVRIVKIDEKTGKITIYLYPNASEEMKEKVAELLKELGFEIEVEEVSPEELSAGGSA [r15_570_TrROS_Hall]	3.4 ± 0.28	3.53 ± 0.14	3.44 ± 0.16
SAGGSAMKIKPGETVTIKVKNKETGEWFEAKIVKVDEEKGEIEIEVEVNGKKYTFTIPAEDIEIVESAGGSA [r15_381_TrROS_Hall]	1.87 ± 0.33	3.12 ± 0.077	2.89 ± 0.29
SAGGSAMKIKRDNGKVRIEIDFPPEMKNPERMLMNIRSAINENPNKPIKVTMPPGHREWAKRLLKESAGGSA [r15_89_TrROS]	0.219 ± 0.19	-0.686 ± 0.44	-0.248 ± 0.24
SAGGSAMKITITVEKKEDGTYRVTIEIDGKKIEIEMSVEDLKKKLEELAKELFPDKPIKVEVKPVPSAGGSA [r15_925_TrROS_Hall]	2.87 ± 0.13	4.13 ± 0.36	3.83 ± 0.2
SAGGSAMKITLKPDGTLEIELPDGVKITITRNANGEVTITITYPDGETKTFPAGMTLEQVLAELLASAGGSA [r15_371_TrROS_Hall]	3.56 ± 0.072	3.3 ± 0.053	3.42 ± 0.051
SAGGSAMKKIPKENVEKVIEFTDKNGKKITIVYNKKTGKAYIFDKKTKKVIEIDMTEDEIKKLLKSSAGGSA [r15_810_TrROS_Hall]	1.1 ± 0.023	2.13 ± 0.061	1.89 ± 0.054
SAGGSAMKKLTIELPDPDITPEEAEKRAREIAEKIAEGNYKVEEIKVEPVDPEKNVYRGTVIIKELSAGGSA [r15_96_JUSTAS]	0.64 ± 0.13	0.365 ± 0.27	0.507 ± 0.34
SAGGSAMKLPKNVKITITKNKDGTVTITITYPDGKKITITMKIDKNGKLKFTKEQIKKLIKELAKKSAGGSA [r15_780_TrROS_Hall]	2.74 ± 0.089	2.52 ± 0.082	2.53 ± 0.22
SAGGSAMKLTLKDKKGNTLFLEVEEKTSEDGTPYYEVKIYYPNTNKVEYAEVPVENLEEFAKKLADSAGGSA [r15_92_TrMRF]	3.21 ± 0.09	3.31 ± 0.086	3.25 ± 0.18
